{
  "source": "patent US9708383",
  "about": "(Novo Nordisk, dated 2017)",
  "binders": {"B1": {"name": "GLP-1 derivative of Example 39: [Aib8,Lys18,Glu22,Gln34]-GLP-1-(7-37)-peptide (peptide)", "peptide": "H[Aib]EGTFTSDVSK([AEEA-AEEA-γGlu-C12 diacid])YLEEQAAK([AEEA-AEEA-γGlu-C12 diacid])EFIAWLVQGRG"}, "B2": {"name": "GLP-1 derivative of Example 37: [Aib8,Lys18,Glu22,Val25,Arg26,Lys31]-GLP-1-(7-33)-peptide amide (peptide)", "peptide": "H[Aib]EGTFTSDVSK([AEEA-AEEA-γGlu-13‑carboxytridecanoyl])YLEEQAVREFIAK([AEEA-AEEA-γGlu-13‑carboxytridecanoyl])LV-NH2", "notes": "Second site printed without its number (N^ε-)"}, "B3": {"name": "GLP-1 derivative of Example 13: [Imp7,Lys18,Glu22,Val25,Arg26,Lys31,Gly34]-GLP-1-(7-34)-peptide (peptide)", "peptide": "[Desaminohistidyl]AEGTFTSDVSK([AEEA-AEEA-γGlu-C12 diacid])YLEEQAVREFIAK([AEEA-AEEA-γGlu-C12 diacid])LVG"}, "B4": {"name": "GLP-1 derivative of Example 65: [Aib8,Lys18,Glu22,Gln34]-GLP-1-(7-37)-peptide (peptide)", "peptide": "H[Aib]EGTFTSDVSK([γGlu-AEEA-AEEA-13‑carboxytridecanoyl])YLEEQAAK([γGlu-AEEA-AEEA-13‑carboxytridecanoyl])EFIAWLVQGRG"}, "B5": {"name": "GLP-1 derivative of Example 20: [Aib8,Lys18,Glu22,Val25,Arg26,Lys31,Gly34]-GLP-1-(7-34)-peptide (peptide)", "peptide": "H[Aib]EGTFTSDVSK([AEEA-γGlu-13‑carboxytridecanoyl])YLEEQAVREFIAK([AEEA-γGlu-13‑carboxytridecanoyl])LVG"}, "B6": {"name": "GLP-1 derivative of Example 138: [Aib8,Lys18,Glu22,Arg34]-GLP-1-(7-35)-peptide (peptide)", "peptide": "H[Aib]EGTFTSDVSK([AEEA-AEEA-γGlu-C16 diacid])YLEEQAAK([AEEA-AEEA-γGlu-C16 diacid])EFIAWLVRG"}, "B7": {"name": "GLP-1 derivative of Example 83: [Aib8,Lys18,Glu22,Arg26,Lys30,Arg34]-GLP-1-(7-35)-peptide (peptide)", "peptide": "H[Aib]EGTFTSDVSK([AEEA-AEEA-γGlu-13‑carboxytridecanoyl])YLEEQAAREFIK([AEEA-AEEA-γGlu-13‑carboxytridecanoyl])WLVRG"}, "B8": {"name": "GLP-1 derivative of Example 81: [Aib8,Lys18,His26,Lys30,Arg34]-GLP-1-(7-35)-peptide (peptide)", "peptide": "H[Aib]EGTFTSDVSK([AEEA-AEEA-γGlu-13‑carboxytridecanoyl])YLEGQAAHEFIK([AEEA-AEEA-γGlu-13‑carboxytridecanoyl])WLVRG"}, "B9": {"name": "GLP-1 derivative of Example 19: [Aib8,Lys18,Glu22,Val25,Arg26,Lys31,Gly34]-GLP-1-(7-34)-peptide (peptide)", "peptide": "H[Aib]EGTFTSDVSK([AEEA-AEEA-γGlu-Decanoyl(10-(4-HOOC-PhO))])YLEEQAVREFIAK([AEEA-AEEA-γGlu-Decanoyl(10-(4-HOOC-PhO))])LVG"}, "B10": {"name": "GLP-1 derivative of Example 63: [Aib8,Lys18,Glu22,Val25,Arg26,Leu27]-GLP-1-(7-34)-peptide (peptide)", "peptide": "H[Aib]EGTFTSDVSK([AEEA-AEEA-γGlu-13‑carboxytridecanoyl])YLEEQAVRLFIAWLVK([AEEA-AEEA-γGlu-13‑carboxytridecanoyl])"}, "B11": {"name": "GLP-1 derivative of Example 33: [Imp7,Lys18,Glu22,Arg26,Lys27,His31,Gly34]-GLP-1-(7-34)-peptide (peptide)", "peptide": "[Desaminohistidyl]AEGTFTSDVSK([AEEA-AEEA-γGlu-Decanoyl(10-(4-HOOC-PhO))])YLEEQAARK([AEEA-AEEA-γGlu-Decanoyl(10-(4-HOOC-PhO))])FIAHLVG"}, "B12": {"name": "GLP-1 derivative of Example 23: [Aib8,Lys18,Glu22,Gln34]-GLP-1-(7-37)-peptide (peptide)", "peptide": "H[Aib]EGTFTSDVSK([AEEA-AEEA-γGlu-C18 diacid])YLEEQAAK([AEEA-AEEA-γGlu-C18 diacid])EFIAWLVQGRG"}, "B13": {"name": "GLP-1 derivative of Example 22: [Imp7,Aib8,Lys18,Glu22,Val25,Arg26,Lys31,Gly34]-GLP-1-(7-34)-peptide (peptide)", "peptide": "[Desaminohistidyl][Aib]EGTFTSDVSK([AEEA-AEEA-γGlu-C12 diacid])YLEEQAVREFIAK([AEEA-AEEA-γGlu-C12 diacid])LVG"}, "B14": {"name": "GLP-1 derivative of Example 32: [Imp7,Lys18,Glu22,Arg26,Lys27,His31,Gly34]-GLP-1-(7-34)-peptide (peptide)", "peptide": "[Desaminohistidyl]AEGTFTSDVSK([γGlu-AEEA-AEEA-13‑carboxytridecanoyl])YLEEQAARK([γGlu-AEEA-AEEA-13‑carboxytridecanoyl])FIAHLVG"}, "B15": {"name": "GLP-1 derivative of Example 140: [Aib8,Lys18,Glu22,Arg34]-GLP-1-(7-35)-peptide (peptide)", "peptide": "H[Aib]EGTFTSDVSK([AEEA-AEEA-γGlu-Decanoyl(10-(4-HOOC-PhO))])YLEEQAAK([AEEA-AEEA-γGlu-Decanoyl(10-(4-HOOC-PhO))])EFIAWLVRG"}, "B16": {"name": "GLP-1 derivative of Example 8: [Aib8,Lys18,Glu22,Val25,Arg26,Lys31,Gly34]-GLP-1-(7-34)-peptide (peptide)", "peptide": "H[Aib]EGTFTSDVSK([AEEA-AEEA-γGlu-C12 diacid])YLEEQAVREFIAK([AEEA-AEEA-γGlu-C12 diacid])LVG"}},
  "note": "*1 amine or outer side, *2 acyl side, *3 side chain or, on linkers, in order; H or OH if unused. Where no end group is shown, it is not given here. Side-chain parts run from the residue outwards. [ ]: non-standard residue; d: D form. The star is where a group is joined. Decanoyl(10-(4-HOOC-PhO)) = O=C(O)c1ccc(OCCCCCCCCCC(=O)*)cc1; C18 diacid = O=C(O)CCCCCCCCCCCCCCCCC(=O)*; C16 diacid = O=C(O)CCCCCCCCCCCCCCC(=O)*; γGlu = O=C(O)[C@H](CCC(=O)[*:2])N[*:1]; Desaminohistidyl = O=C(CCc1c[nH]cn1)*; C12 diacid = O=C(O)CCCCCCCCCCC(=O)*; 13‑carboxytridecanoyl = C14 diacid; AEEA = NCCOCCOCC(=O)O; Aib = CC(C)(N)C(=O)O",
  "data": [
    {"target": "T1, human GLP-1 receptor (human, UniProt P43220 24-463)", "T1 construct": "whole, on cells; Used as purified membranes of the transfected hamster cells, not whole cells; also called hGLP-1", "assay": "SPA, displacement of 125I-GLP-1(7-36)NH2, 0.005% HSA", "units": {"IC50": "nM"}, "values": [
      {"binder": "B1", "IC50": "< 1000"},
      {"binder": "B2", "IC50": "< 1000"},
      {"binder": "B3", "IC50": "< 1000"},
      {"binder": "B4", "IC50": "< 1000"},
      {"binder": "B5", "IC50": "< 1000"},
      {"binder": "B6", "IC50": "< 1000"},
      {"binder": "B7", "IC50": "< 1000"},
      {"binder": "B8", "IC50": "< 1000"},
      {"binder": "B9", "IC50": "< 1000"},
      {"binder": "B10", "IC50": "< 1000"},
      {"binder": "B11", "IC50": "< 1000"},
      {"binder": "B12", "IC50": "< 1000"},
      {"binder": "B13", "IC50": "< 1000"},
      {"binder": "B14", "IC50": "< 1000"},
      {"binder": "B15", "IC50": "< 1000"},
      {"binder": "B16", "IC50": "< 1000"}
    ]},
    {"target": "T1, human GLP-1 receptor", "assay": "SPA, 2.0% vs 0.005% HSA", "values": [
      {"binder": "B1", "ratio IC50 high HSA/IC50 low HSA": "> 1"},
      {"binder": "B2", "ratio IC50 high HSA/IC50 low HSA": "> 1"},
      {"binder": "B3", "ratio IC50 high HSA/IC50 low HSA": "> 1"},
      {"binder": "B4", "ratio IC50 high HSA/IC50 low HSA": "> 1"},
      {"binder": "B5", "ratio IC50 high HSA/IC50 low HSA": "> 1"},
      {"binder": "B6", "ratio IC50 high HSA/IC50 low HSA": "> 1"},
      {"binder": "B7", "ratio IC50 high HSA/IC50 low HSA": "> 1"},
      {"binder": "B8", "ratio IC50 high HSA/IC50 low HSA": "> 1"},
      {"binder": "B9", "ratio IC50 high HSA/IC50 low HSA": "> 1"},
      {"binder": "B10", "ratio IC50 high HSA/IC50 low HSA": "> 1"},
      {"binder": "B11", "ratio IC50 high HSA/IC50 low HSA": "> 1"},
      {"binder": "B12", "ratio IC50 high HSA/IC50 low HSA": "> 1"},
      {"binder": "B13", "ratio IC50 high HSA/IC50 low HSA": "> 1"},
      {"binder": "B14", "ratio IC50 high HSA/IC50 low HSA": "> 1"},
      {"binder": "B15", "ratio IC50 high HSA/IC50 low HSA": "> 1"},
      {"binder": "B16", "ratio IC50 high HSA/IC50 low HSA": "> 1"}
    ]}
  ]
}
